Columns and labels:
[1] = molecular target: T1, PTCH1 (Patched 1) (Mus musculus, UniProt Q61115); assay: UV photocrosslinking in intact cells, immunoprecipitation and click-biotin detection; assay type: cell-based
T1 construct: full-length PTCH1-WT with C-terminal 1D4 tag
T1 sequence (Q61115 1-1434): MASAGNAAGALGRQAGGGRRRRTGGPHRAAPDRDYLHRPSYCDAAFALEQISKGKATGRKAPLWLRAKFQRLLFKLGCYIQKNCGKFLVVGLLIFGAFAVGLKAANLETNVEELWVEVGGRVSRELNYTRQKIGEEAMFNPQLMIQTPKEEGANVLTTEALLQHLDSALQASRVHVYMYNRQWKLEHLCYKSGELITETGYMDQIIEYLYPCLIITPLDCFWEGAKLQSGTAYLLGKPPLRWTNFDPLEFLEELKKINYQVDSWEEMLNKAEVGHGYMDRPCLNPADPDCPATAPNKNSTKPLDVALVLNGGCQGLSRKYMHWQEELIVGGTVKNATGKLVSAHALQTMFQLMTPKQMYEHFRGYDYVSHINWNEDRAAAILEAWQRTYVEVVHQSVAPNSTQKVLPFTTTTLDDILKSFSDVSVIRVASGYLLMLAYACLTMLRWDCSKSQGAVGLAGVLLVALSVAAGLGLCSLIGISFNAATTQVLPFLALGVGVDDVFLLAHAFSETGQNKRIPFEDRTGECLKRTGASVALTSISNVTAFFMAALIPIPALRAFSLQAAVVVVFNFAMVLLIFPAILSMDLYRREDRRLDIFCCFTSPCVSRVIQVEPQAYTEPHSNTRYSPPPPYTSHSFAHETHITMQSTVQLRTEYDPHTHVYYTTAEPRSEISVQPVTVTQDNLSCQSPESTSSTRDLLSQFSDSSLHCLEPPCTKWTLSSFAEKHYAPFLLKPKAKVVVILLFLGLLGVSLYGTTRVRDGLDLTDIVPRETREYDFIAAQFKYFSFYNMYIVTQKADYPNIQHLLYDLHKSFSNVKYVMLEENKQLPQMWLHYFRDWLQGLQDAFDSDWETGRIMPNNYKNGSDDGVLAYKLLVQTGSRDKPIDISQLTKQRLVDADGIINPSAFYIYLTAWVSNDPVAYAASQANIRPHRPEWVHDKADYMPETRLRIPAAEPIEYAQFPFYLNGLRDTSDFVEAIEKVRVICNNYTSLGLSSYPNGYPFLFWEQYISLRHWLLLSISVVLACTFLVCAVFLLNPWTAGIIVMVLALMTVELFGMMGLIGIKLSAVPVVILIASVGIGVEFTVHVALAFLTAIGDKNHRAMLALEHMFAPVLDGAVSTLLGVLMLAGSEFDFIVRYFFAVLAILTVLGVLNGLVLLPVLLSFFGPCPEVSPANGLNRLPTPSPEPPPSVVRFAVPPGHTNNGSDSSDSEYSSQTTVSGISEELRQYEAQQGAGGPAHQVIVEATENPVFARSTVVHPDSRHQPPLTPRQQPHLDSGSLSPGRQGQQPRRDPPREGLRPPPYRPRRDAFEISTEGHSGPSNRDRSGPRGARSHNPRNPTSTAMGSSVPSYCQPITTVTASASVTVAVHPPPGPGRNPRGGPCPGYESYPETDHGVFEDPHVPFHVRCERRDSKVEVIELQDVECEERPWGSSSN
Source text: UV photocrosslinking in intact cells, immunoprecipitation and click-biotin detection on PTCH1 (Patched 1) | PTCH1 itself could be photolabeled by 6-azi-20(S)-yne. Labeling of PTCH1 by 6-azi-20(S)-yne was diminished by SHH

[2] = molecular target: T2, hSMOΔC (Homo sapiens, UniProt Q99835); assay: SEC; fluorescence-detection size exclusion chromatography (FSEC); purified hSMOΔC variants and Nb8-mVenus incubated 1 hour in 200 μl, no added ligands; Superose 6 Increase 3.2/300 in 10 mM Hepes pH 7.5, 150 mM NaCl, 0.02% GDN, 0.002% CHS; mVenus fluorescence followed; conditions: both partners purified
T2 construct: Smoothened (SMO), human, UniProt Q99835, amino acid residues 32 to 555, lacks the disordered C-terminal cytoplasmic tail; Purified in detergent (GDN/CHS); Cloned into pHR-CMV-TetO2 (Addgene plasmid no. 113883) with a 3C-protease cleavable mVenus-1D4 tag; called nonfluorescent in the FSEC assay; also called human Smoothened lacking its C-terminal cytoplasmic tail; hSMO∆C; not shown: HA, …
T2 sequence (Q99835 32-555, stated change not applied): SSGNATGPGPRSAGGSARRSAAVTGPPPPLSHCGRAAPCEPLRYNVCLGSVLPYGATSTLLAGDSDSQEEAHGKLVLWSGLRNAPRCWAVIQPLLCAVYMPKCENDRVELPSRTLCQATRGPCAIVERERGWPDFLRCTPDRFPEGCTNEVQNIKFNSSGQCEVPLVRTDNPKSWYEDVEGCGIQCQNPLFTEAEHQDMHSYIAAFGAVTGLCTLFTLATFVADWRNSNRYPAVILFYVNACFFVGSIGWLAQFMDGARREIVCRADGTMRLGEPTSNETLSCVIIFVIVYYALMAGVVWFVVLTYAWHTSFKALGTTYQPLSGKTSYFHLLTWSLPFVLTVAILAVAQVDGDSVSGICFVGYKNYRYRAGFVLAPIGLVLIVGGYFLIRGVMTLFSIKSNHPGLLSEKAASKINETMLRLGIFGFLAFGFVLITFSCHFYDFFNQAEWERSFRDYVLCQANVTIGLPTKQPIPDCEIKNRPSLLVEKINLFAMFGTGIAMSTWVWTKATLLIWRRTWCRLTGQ

[3] = molecular target: T3, hSMOΔC-ΔCRD (Homo sapiens, UniProt Q99835); assay: as above; conditions: both partners purified
T3 construct: Smoothened (SMO), human, UniProt Q99835, amino acid residues 190 to 555, lacks the cysteine-rich domain and the C-terminal cytoplasmic tail; Purified in detergent (GDN/CHS); also called hSMOΔC lacking the CRD; not shown: mVenus, C-terminal, cleaved; 1D4, C-terminal, cleaved
T3 sequence (Q99835 190-555, stated change not applied): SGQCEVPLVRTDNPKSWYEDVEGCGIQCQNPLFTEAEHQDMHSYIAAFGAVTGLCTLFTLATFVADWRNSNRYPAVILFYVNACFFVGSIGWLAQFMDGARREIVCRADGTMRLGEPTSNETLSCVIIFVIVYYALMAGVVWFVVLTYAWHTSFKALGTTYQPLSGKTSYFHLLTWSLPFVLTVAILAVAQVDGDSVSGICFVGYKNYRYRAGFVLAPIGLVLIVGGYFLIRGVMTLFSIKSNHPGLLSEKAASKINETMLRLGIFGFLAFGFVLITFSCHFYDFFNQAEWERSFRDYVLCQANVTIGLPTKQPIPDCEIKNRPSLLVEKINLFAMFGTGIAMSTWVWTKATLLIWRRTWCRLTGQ

binding result [2]	binding result [3]	Molecule	UV photocrosslinking in intact cells, immunoprecipitation and click-biotin detec [1]
–	–	C#CCC[C@](C)(O)[C@H]1CC[C@H]2[C@@H]3CC4(N=N4)[C@H]4C[C@@H](O)CC[C@]4(C)[C@H]3CC[C@@]21C [6-azi-20(S)-yne]	PTCH1 itself could be photolabeled by 6-azi-20(S)-yne. Labeling of PTCH1 by 6-azi-20(S)-yne was diminished by SHH
binds	binds	Nb8-mVenus (VHH, Fused at its C terminus to a HRV3C-mVenus-12His fragment (HRV3C protease site between Nb8 and mVenus); the only Nb8 construct described is this one; also called active-conformation specific nanobody Nb8; active-state selective Nb8; not shown: mVenus, C-terminal, kept; 12His, C-terminal, kept) VHH: QVQLQESGGGLVQAGGSLRLSCAASGYIFSSYAMGWYRQAPGKEREFVATIGWGTITYYADSVKGRFTISRDNAKNTVYLQMNSLKPEDTAVYYCAAQDLLYYSFPGDHAYWGQGTQVTVSS	–
